# Measurements taken from patent US20090214427A1, “Novel peptides” (Licentia OY, priority 2004, published 2009).
# pIC50: −log10 of the molar value. Positions of bridges follow the written chain, without caps; N, C: chain ends. No end group written: not given here.
# Molecular target: urokinase (Homo sapiens, UniProt P00749)
# Experiment: Specificity: effect on enzyme activity of urokinase (substrate S-2444)
# Assay type: biochemical
# Conditions: not given
# Protocol: (§1) The effect of the peptides on the enzyme activity of hK2 was studied by using the chromogenic substrate S-2302 (H-D-Pro-Phe-Arg-pNA). HK2 (0.17 μM) was incubated with a 100-1000-fold molar excess of synthetic peptides in 20 mM Tris-buffer pH 8.0 containing 0.1% BSA for 30 minutes at room temperature. After addition of the substrate to a final concentration of 0.2 mM the absorbance was monitored at 405 nm at 5-10 min intervals for 1 h on a Victor 1420 Multilabel fluorometer (PerkinElmer-Wallac, Turku, Finland)
# (§2) The specificity of the peptides was analyzed by studying their effect on the activity of other serine proteases including α-chylotrypsin, bovine trypsin, human trypsin 1, trypsin 2 and trypsin 3, urokinase, thrombin, plasmin, plasma kallikrein and PSA. The assay was as described above for hK2 except that the substrate for PSA and α-chymotrypsin was S-2586 (MeO-Suc-Arg-Pro-Tyr-pNA)(Chromogenix), S-2444 for urokinase, S-2238 for thrombin, S-2403 for plasmin, S-2302 for plasma kallikrein and that for various forms of trypsin was S-2222 (CO-Ile-Glu-(OR)-Gly-Arg-pNA)(Chromogenix).
row,Substance,effect on activity of urokinase
1,PARRPFPVTA [HK2p03],no inhibition
2,"SRFKVWWAAG-OH [HK2p01, SRFKVWWAAG]",no inhibition
3,AARRPFPAPS [HK2p02],no inhibition

# Molecular target: T1, plasma kallikrein (Homo sapiens, UniProt P03952)
# T1 construct: Human plasmin, thrombin and plasma kallikrein were from Sigma; purchased Sigma
# T1 sequence (P03952 20-390 partner limits assumed): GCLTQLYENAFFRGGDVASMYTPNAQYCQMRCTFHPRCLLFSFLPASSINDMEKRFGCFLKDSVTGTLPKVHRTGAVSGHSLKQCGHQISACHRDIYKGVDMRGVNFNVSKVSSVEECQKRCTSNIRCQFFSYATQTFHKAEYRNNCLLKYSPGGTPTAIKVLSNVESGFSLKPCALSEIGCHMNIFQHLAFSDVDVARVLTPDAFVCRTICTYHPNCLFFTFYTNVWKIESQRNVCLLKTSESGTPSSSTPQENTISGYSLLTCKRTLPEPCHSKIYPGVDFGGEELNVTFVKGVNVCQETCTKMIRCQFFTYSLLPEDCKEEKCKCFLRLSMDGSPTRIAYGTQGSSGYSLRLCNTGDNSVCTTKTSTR
# T1 sequence (P03952 391-638 limits assumed): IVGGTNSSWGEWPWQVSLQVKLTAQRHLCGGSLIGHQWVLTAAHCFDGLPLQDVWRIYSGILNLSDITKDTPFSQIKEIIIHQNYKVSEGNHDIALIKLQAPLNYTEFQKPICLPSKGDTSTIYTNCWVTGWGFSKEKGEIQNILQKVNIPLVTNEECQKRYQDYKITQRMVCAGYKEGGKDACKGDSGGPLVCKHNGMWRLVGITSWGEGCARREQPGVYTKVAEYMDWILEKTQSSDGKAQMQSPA
# Experiment: Specificity: effect on enzyme activity of plasma kallikrein (substrate S-2302)
# Assay type: biochemical
# Conditions: not given
# Protocol: as §1, §2
row,Substance,effect on activity of plasma kallikrein
1,PARRPFPVTA [HK2p03],no inhibition
2,"SRFKVWWAAG-OH [HK2p01, SRFKVWWAAG]",no inhibition
3,AARRPFPAPS [HK2p02],no inhibition

# Molecular target: T2, trypsin 3 (Homo sapiens, UniProt P35030)
# T2 construct: made in house
# T2 sequence (P35030 1-304): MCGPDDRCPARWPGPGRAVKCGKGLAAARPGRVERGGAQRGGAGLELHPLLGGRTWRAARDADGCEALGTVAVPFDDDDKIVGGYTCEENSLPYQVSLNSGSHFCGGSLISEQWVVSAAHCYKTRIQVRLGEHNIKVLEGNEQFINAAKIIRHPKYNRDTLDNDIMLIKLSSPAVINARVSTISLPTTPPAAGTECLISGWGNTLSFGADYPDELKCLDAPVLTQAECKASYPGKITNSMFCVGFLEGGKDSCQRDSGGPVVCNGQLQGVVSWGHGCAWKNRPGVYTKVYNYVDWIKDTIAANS
# Experiment: Specificity: effect on enzyme activity of human trypsin 3 (substrate S-2222)
# Assay type: biochemical
# Conditions: not given
# Protocol: as §1, §2
row,Substance,effect on activity of human trypsin 3
1,PARRPFPVTA [HK2p03],no inhibition
2,"SRFKVWWAAG-OH [HK2p01, SRFKVWWAAG]",no inhibition
3,AARRPFPAPS [HK2p02],no inhibition

# Molecular target: T3, human trypsin 1 (Homo sapiens, UniProt P07477)
# T3 construct: made in house
# Experiment: Specificity: effect on enzyme activity of human trypsin 1 (substrate S-2222)
# Assay type: biochemical
# Conditions: not given
# Protocol: as §1, §2
row,Substance,effect on activity of human trypsin 1
1,PARRPFPVTA [HK2p03],no inhibition
2,"SRFKVWWAAG-OH [HK2p01, SRFKVWWAAG]",no inhibition
3,AARRPFPAPS [HK2p02],no inhibition

# Molecular target: T4, hK2 (Homo sapiens, UniProt P20151)
# T4 construct: made in house
# T4 sequence (P20151 25-261): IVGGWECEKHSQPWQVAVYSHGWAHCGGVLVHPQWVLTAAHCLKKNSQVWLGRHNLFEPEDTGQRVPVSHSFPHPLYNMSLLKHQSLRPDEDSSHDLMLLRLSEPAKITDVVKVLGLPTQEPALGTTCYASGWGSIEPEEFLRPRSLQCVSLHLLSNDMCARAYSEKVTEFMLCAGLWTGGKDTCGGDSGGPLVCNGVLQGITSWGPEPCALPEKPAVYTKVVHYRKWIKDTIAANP
# Experiment: Effect of the peptides on the enzyme activity of hK2 (chromogenic substrate S-2302)
# Assay type: biochemical
# Conditions: S-2302 200 μM, 0.17 μM hK2, 0-400 μM peptide; read-out: IC50 for hK2 inhibition
row,Substance,pIC50
1,"ARFKVWWAAG [SEQ ID NO 56, A, R ,F, K, V, W, W, A, A, G]",5.66

# Molecular target: T5, thrombin (Homo sapiens, UniProt P00734)
# T5 construct: Human plasmin, thrombin and plasma kallikrein were from Sigma; purchased Sigma
# Experiment: Specificity: effect on enzyme activity of thrombin (substrate S-2238)
# Assay type: biochemical
# Conditions: not given
# Protocol: as §1, §2
row,Substance,effect on activity of thrombin
1,PARRPFPVTA [HK2p03],no inhibition
2,"SRFKVWWAAG-OH [HK2p01, SRFKVWWAAG]",no inhibition
3,AARRPFPAPS [HK2p02],no inhibition

# Molecular target: T6, bovine trypsin (Bos taurus, UniProt P00760)
# T6 construct: purchased Athens Research and Technology, Athens, Ga., USA
# T6 sequence (P00760 24-246): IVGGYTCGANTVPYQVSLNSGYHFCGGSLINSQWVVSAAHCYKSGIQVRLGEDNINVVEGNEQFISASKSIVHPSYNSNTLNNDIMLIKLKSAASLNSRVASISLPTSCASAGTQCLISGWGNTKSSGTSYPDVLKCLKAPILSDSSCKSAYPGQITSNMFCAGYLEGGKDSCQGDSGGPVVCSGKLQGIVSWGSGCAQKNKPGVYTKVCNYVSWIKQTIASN
# Experiment: Specificity: effect on enzyme activity of bovine trypsin (substrate S-2222)
# Assay type: biochemical
# Conditions: not given
# Protocol: as §1, §2
row,Substance,effect on activity of bovine trypsin
1,PARRPFPVTA [HK2p03],no inhibition
2,"SRFKVWWAAG-OH [HK2p01, SRFKVWWAAG]",no inhibition
3,AARRPFPAPS [HK2p02],no inhibition

# Molecular target: T7, PSA (Homo sapiens, UniProt P07288)
# T7 construct: PSA was purified from human seminal plasma as described (Zhang et al. 1995); from tissue; host or cells: human seminal plasma
# T7 sequence (P07288 25-261): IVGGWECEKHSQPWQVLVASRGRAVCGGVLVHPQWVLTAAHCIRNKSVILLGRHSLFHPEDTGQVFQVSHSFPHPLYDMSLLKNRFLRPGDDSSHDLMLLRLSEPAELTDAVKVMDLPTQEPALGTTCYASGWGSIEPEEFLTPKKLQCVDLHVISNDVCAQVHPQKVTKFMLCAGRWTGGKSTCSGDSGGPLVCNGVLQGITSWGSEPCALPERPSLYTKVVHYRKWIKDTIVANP
# Experiment: Specificity: effect on enzyme activity of PSA (substrate S-2586)
# Assay type: biochemical
# Conditions: not given
# Protocol: as §1, §2
row,Substance,effect on activity of PSA
1,PARRPFPVTA [HK2p03],no inhibition
2,"SRFKVWWAAG-OH [HK2p01, SRFKVWWAAG]",no inhibition
3,AARRPFPAPS [HK2p02],no inhibition

# Molecular target: T4, hK2
# Experiment: Effect of the peptides on the enzyme activity of hK2 (chromogenic substrate S-2302)
# Assay type: biochemical
# Conditions: 0.17 μM hK2, 100-fold molar excess of peptide
# Protocol: “Inhibition”, as used in the present context, stands for an inhibitory action on the proteolytic activity of hK2.
# as §1
row,Substance,inhibition of hK2 enzyme activity
1,PARRPFPVTA [HK2p03],slight inhibition
2,"SRFKVWWAAG-OH [HK2p01, SRFKVWWAAG]",slight inhibition
3,AARRPFPAPS [HK2p02],slight inhibition

# Same assay, conditions: FIG. 3
row,Substance,effect of cyclic peptides on hK2 protease activity
1,C3AARRPAPAPCG (CAARRPAPAPCG; disulfide 1-11 (inferred)) [BTK144-18c],slight inhibitory effect

# Same assay, conditions: Lineweaver-Burke Plot
row,Substance,type of inhibition of hK2
1,"ARFKVWWAAG [SEQ ID NO 56, A, R ,F, K, V, W, W, A, A, G]",competitive inhibitor

# Same assay, conditions: enzymatic activity of hK2, chromogenic substrate, 405 nm
row,Substance,inhibition (percent inhibition of hK2) [%]
1,57 (SRFKVWWAAG) [compound 57],27
2,31 (GPARRPFPVTAG) [compound 31],58
3,69 (SRFKVWWG) [compound 69],79
4,15 (GPARRPFPVTAG) [compound 15],49
5,55 (SRFKVWWAAG) [compound 55],79
6,73 (SRFKVWWG) [compound 73],82
7,63 (SRFKVWWAAG) [compound 63],78
8,64 (SRFKVWWAAG) [compound 64],85

# Same assay, conditions: incubation of hK2 with synthetic peptide (FIG. 2)
row,Substance,effect on the enzyme activity of hK2
1,CYRMPTCMQRD [HK2p06],did not show any effect
2,PARRPFPVTA [HK2p03],significant reduction
3,CFRQGCWVIT [HK2p04],did not show any effect
4,"SRFKVWWAAG-OH [HK2p01, SRFKVWWAAG]",significant reduction
5,AARRPFPAPS [HK2p02],significant reduction

# Molecular target: T8, plasmin (Homo sapiens, UniProt P00747)
# T8 construct: Human plasmin, thrombin and plasma kallikrein were from Sigma; purchased Sigma
# T8 sequence (P00747 97-580 partner limits assumed): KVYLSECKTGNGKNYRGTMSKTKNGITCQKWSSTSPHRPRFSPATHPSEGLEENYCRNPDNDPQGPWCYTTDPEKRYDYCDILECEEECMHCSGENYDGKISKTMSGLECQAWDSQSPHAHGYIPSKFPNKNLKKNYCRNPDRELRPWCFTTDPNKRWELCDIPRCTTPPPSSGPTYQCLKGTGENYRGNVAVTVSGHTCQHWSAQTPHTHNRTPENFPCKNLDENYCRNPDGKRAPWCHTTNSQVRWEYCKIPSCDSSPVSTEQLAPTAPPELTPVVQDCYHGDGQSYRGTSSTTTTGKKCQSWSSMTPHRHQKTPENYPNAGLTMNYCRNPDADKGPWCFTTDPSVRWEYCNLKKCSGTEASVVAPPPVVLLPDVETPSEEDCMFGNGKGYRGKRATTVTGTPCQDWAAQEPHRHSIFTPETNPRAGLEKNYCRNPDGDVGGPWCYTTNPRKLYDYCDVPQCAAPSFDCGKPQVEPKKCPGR
# T8 sequence (P00747 581-810 limits assumed): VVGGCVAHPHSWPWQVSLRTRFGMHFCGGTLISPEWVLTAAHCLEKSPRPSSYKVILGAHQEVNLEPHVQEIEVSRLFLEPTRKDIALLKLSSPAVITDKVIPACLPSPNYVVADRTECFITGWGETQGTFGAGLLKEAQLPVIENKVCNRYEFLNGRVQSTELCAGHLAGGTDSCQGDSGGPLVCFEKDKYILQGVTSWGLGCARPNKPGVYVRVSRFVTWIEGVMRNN
# Experiment: Specificity: effect on enzyme activity of plasmin (substrate S-2403)
# Assay type: biochemical
# Conditions: not given
# Protocol: as §1, §2
row,Substance,effect on activity of plasmin
1,PARRPFPVTA [HK2p03],no inhibition
2,"SRFKVWWAAG-OH [HK2p01, SRFKVWWAAG]",no inhibition
3,AARRPFPAPS [HK2p02],no inhibition

# Molecular target: T4, hK2
# Experiment: Cross-inhibition test: inhibition of phage binding to captured hK2 by synthetic peptides (IFMA)
# Conditions: synthetic peptide 5 μM, FIG. 1
# Protocol: The phage IFMA was performed essentially as described (Wu, Leinonen et al. 2000). In this assay, 50 ng of hK2 in 200 μL of assay buffer was captured onto wells coated with MAb 5E4. After washing, 2.5 μL of phage (10^8-10^9 infectious particles) and 200 μL assay buffer were added to wells. After incubation for 1 h, the wells were washed and filled with 200 μL of assay buffer containing 100 ng Eu-labeled anti-phage polyclonal antibody recognizing the M13 coat protein of the phage. After incubation for 60 min, the wells were washed 4 times, and enhancement solution (Perkin Elmer-Wallac) was added. The fluorescence was quantified with a Victor fluorometer in time resolved mode (Perkin Elmer-Wallac).
# The relative binding sites of the peptides on hK2 were mapped by competition experiments with chemically synthesized and phage peptides. The protocol was based on the IFMA method described above except that phages and the synthetic peptides were reacted together with hK2. Briefly, each of the synthetic peptides at 5 μM concentration was added into the wells in which hK2 had been captured by MAb 5E4. After incubation for 30 min each phage was added. After 1 h incubation, the wells were washed and the assay was as described above for IFMA.
row,Substance,inhibition of the binding of the phage carrying the corresponding peptide
1,CYRMPTCMQRD [HK2p06],inhibited efficiently
2,PARRPFPVTA [HK2p03],inhibited efficiently
3,FRTCLRSWACM [HK2p05],not inhibited
4,"SRFKVWWAAG-OH [HK2p01, SRFKVWWAAG]",inhibited efficiently
5,AARRPFPAPS [HK2p02],inhibited efficiently

# Molecular target: T9, trypsin 2 (Homo sapiens, UniProt P07478)
# T9 construct: made in house
# T9 sequence (P07478 24-247): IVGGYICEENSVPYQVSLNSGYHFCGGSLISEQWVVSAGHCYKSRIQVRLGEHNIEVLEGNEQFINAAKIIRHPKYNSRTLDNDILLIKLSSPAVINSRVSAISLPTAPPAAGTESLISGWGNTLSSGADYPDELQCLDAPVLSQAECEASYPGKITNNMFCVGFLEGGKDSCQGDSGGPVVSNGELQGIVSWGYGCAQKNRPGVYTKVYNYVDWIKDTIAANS
# Experiment: Specificity: effect on enzyme activity of human trypsin 2 (substrate S-2222)
# Assay type: biochemical
# Conditions: not given
# Protocol: as §1, §2
row,Substance,effect on activity of human trypsin 2
1,PARRPFPVTA [HK2p03],no inhibition
2,"SRFKVWWAAG-OH [HK2p01, SRFKVWWAAG]",no inhibition
3,AARRPFPAPS [HK2p02],no inhibition

# System: α-chymotrypsin
# Experiment: Specificity: effect on enzyme activity of α-chymotrypsin (substrate S-2586)
# Assay type: biochemical
# Conditions: not given
# Protocol: as §1, §2
row,Substance,effect on activity of α-chymotrypsin
1,PARRPFPVTA [HK2p03],no inhibition
2,"SRFKVWWAAG-OH [HK2p01, SRFKVWWAAG]",no inhibition
3,AARRPFPAPS [HK2p02],no inhibition
